# Results published in US20200299380A1 (published 2020).
# T1: human ULBP-1-Fc (R&D systems) (human, UniProt Q9BZM6 26-216, limits assumed)
# T1 construct: Bought; not shown: Fc of the bought fusion protein
# T1 sequence (looked up): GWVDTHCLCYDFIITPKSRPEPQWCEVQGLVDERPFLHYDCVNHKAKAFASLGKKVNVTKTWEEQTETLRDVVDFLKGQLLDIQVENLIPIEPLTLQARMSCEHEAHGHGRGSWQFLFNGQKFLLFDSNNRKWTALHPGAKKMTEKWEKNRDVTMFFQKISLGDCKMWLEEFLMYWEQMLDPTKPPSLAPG
# T2: human ULBP-3-Fc (R&D systems) (human, UniProt Q9BZM4 30-217, limits assumed)
# T2 construct: Bought; not shown: Fc of the bought fusion protein
# T2 sequence (looked up): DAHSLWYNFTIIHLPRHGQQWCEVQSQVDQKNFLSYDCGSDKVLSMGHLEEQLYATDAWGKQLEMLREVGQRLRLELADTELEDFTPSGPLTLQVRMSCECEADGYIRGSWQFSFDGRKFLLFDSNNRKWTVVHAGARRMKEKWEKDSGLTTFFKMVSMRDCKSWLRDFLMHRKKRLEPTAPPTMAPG
# T3: MICA*001-BirA (human, UniProt Q29983 24-297)
# T3 construct: also called MICA-BirA; MICA*01-BirA; not shown: BirA tag
# T3 sequence: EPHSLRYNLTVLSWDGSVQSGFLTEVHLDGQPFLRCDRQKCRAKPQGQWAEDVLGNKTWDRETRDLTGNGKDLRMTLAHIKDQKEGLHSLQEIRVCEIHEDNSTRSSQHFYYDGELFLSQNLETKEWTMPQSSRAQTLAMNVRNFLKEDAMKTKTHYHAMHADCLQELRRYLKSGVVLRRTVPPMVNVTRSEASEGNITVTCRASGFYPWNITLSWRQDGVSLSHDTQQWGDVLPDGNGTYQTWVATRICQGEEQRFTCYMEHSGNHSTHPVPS
# T4: MICA*004 expressed at the cell surface (human, UniProt Q29983 24-297)
# T4 construct: also called C1R-MICA*004; C1R-MICA*04
# T4 chain: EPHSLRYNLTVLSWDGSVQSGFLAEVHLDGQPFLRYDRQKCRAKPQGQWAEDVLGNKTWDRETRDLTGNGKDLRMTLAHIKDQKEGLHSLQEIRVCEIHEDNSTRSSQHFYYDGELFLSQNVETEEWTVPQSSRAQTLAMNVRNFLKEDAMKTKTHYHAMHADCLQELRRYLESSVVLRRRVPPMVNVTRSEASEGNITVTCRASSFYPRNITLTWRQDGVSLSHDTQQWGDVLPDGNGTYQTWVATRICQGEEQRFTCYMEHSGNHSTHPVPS
# T5: MICA*001 expressed at the cell surface (human, UniProt Q29983 24-297)
# T5 construct: the protein on cells also has its transmembrane and cytoplasmic parts (Genbank AAB41060); also called C1R-MICA*001; C1R-MICA*01
# T5 sequence: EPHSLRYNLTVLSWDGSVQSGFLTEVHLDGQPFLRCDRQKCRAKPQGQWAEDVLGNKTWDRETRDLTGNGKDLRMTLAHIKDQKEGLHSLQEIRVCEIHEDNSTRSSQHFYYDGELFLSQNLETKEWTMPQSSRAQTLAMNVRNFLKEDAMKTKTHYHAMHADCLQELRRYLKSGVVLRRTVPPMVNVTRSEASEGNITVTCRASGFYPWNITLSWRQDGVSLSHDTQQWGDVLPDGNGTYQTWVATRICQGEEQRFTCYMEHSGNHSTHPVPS
# Legend:
# [1] = target: T1, human ULBP-1-Fc (R&D systems); assay: SPR, antibody injected over immobilized ULBP-1-Fc
# Protocol: (§1) For cross-binding study, the human ULBP-1-Fc (R&D systems*), MICB-Fc (*), ULBP-2-Fc (*) and ULBP-3-Fc (*) recombinant proteins were covalently immobilized respectively on the flow cell one to four of a CM5 sensorchip. Anti-MICA antibodies (at a constant concentration of 10 μg/ml) were injected for 2 minutes at a flow rate of 10 μl/min onto the four flow cells in parallel. After each cycle, Sensorchip was regenerated by a five second injection of appropriate regeneration buffer.
# [2] = target: T2, human ULBP-3-Fc (R&D systems); assay: SPR, antibody injected over immobilized ULBP-3-Fc
# Protocol: as §1
# [3] = target: T3, MICA*001-BirA; assay: SPR single cycle kinetics, monovalent mean KD at pH 7.4, antibody captured on Protein-G chip, MICA-BirA injected
# Protocol: For monovalent affinity measurement, chimeric anti-MICA antibodies were captured onto a Protein-G chip.
# Affinities were determined using single cycle kinetics (SCK). SCK cycles were as follows: Successive 120s injections at 30 μl/min of 5 serial dilutions (0.01 to 100 nM) of MICA-His or MICA-BirA in ascending order (or of buffer for the blank injections to be subtracted during the analysis). After the last concentration is injected, complex is left to dissociate for 600s before regeneration by a 10s injection of appropriate regeneration buffer at 40 μl/min. After the regeneration, chip is left to stabilise for 60s in running buffer. Curves are fitted using Biacore T100 Evaluation software.
# [4] = target: T4, MICA*004 expressed at the cell surface; assay: flow cytometry on C1R transfectant cells, 4-parameter logistic fit
# Protocol: (§2) The binding of antibodies obtained from the first, second and third immunization series (including CHG1-M-MIA-19E9, CHG1-M-MIA-9C10, CHG1-M-MIA-6E4, CHG1-M-MIA-20C6, CHG1-M-MIA-16A8, CHG1-M-MIA-12A10, CHG1-M-MIA-10A7, CHG1-M-MIA-18E8, CHG1-M-MIA-10F3, CHG1-M-MIA-15F9 and CHG1-M-MIA-14B4) were tested for binding to MICA-expressing CR1 transfectant cells C1R-MICA*001, C1R-MICA*004, C1R-MICA*007 and C1R-MICA*008 (Pr. A. Steinle, Eberhard-Karls University Tuebingen, Germany) described in Salih et al. (2003) Blood 102(4): […]. Binding was analyzed by flow cytometry.
# (§3) Cells were harvested and stained in PBS 1×/BSA 0.2%/EDTA 2 mM buffer during 30 minutes at 4° C. using a dose-range of the anti-MICA mAbs. After two washes in staining buffer, cells were stained for 30 min at 4° C. with mouse anti-human IgG1-PE monoclonal antibodies (1/11). After two washes, stainings were acquired on a BD FACS Canto II and analyzed using the FlowJo software.
# (§4) Antibodies CHG1-M-MIA-19E9, CHG1-M-MIA-9C10, CHG1-M-MIA-6E4, CHG1-M-MIA-20C6, CHG1-M-MIA-12A10, CHG1-M-MIA-10A7, CHG1-M-MIA-18E8, CHG1-M-MIA-10F3, and CHG1-M-MIA-15F9 bound to each of the C1R-MICA*001, C1R-MICA*004, C1R-MICA*007 and C1R-MICA*008 cells (see FIG. 1A for antibodies CHG1-M-MIA-19E9, CHG1-M-MIA-9C10, CHG1-M-MIA-6E4, CHG1-M-MIA-20C6, CHG1-M-MIA-12A10, CHG1-M-MIA-10F3, and FIG. 1B for antibodies, CHG1-M-MIA-18E8, CHG1-M-MIA-15F9, CHG1-M-MIA-10A7). […] EC50 values are shown in Table C in μg/ml (calculated using a 4-parameter logistic fit).
# [5] = target: T5, MICA*001 expressed at the cell surface; assay: as above
# Protocol: as §2, §3, §4
binder,measurement,setting,value
"CHG1-M-MIA-20C6 (antibody, V domains shown, also called chimeric anti-MICA 20C6) VH: QITLKESGPGILKPSQTLSLTCSFSGFSLSTSGMGVGWIRQPSGKGLEWLAHIWWDDDKYYNPSLKSQLTISKDTSRNQVFLRITSVDTADTATYYCARRTQGYFDYWGQGTTLTVSS VL: DIVMTQSPATLSVTPGDRVSLSCRASQSISDYLHWYQQKSHESPRLLIKYASQSISGIPSRFSGSGSGSDFTLSINSVEPEDVGVYYCQNGHSFPWTFGGGTKLEIKR",binding result,[1],no binding (tested: 10 µg/ml)
same,binding result,[2],no binding (tested: 10 µg/ml)
same,Kd,[3],40 nM
same,EC50,[4],0.05 µg/mL
same,EC50,[5],0.26 µg/mL
"CHG1-M-MIA-6E4 (antibody, V domains shown, also called chimeric anti-MICA 6E4) VH: EVQLVESGGALVKPGGSLKLSCAASGFTFSYYAMSWVRQTPEKRLEWVATISRGGNYIYYTDSVKGRFTISRDNAKNTLYLQMTSLRSEDTAMFYCASISDYDGAWLAYWGQGTTLTVSS VL: DVLMTQTPLSLPVSLGDQASISCRSSQSIIHTNGNTYLEWYLQKPGQSPKLLIYKISNRFSGVPDRFSGSGSGTDFTLKISRVEAEDLGVYYCFQGSHVPWTFGGGTKLEIKR",binding result,[1],no binding (tested: 10 µg/ml)
same,binding result,[2],no binding (tested: 10 µg/ml)
same,Kd,[3],8.9 nM
same,EC50,[4],2.67 µg/mL
same,EC50,[5],1.96 µg/mL
"CHG1-M-MIA-16A8 (antibody, V domains shown, also called CHG1-M-MIA2-16A8; chimeric anti-MICA 16A8) VH: EVQLVESGGGLVKPGGSLKLSCAASGFTFSRYAMSWVRQTPEKRLEWVATIFSGGSYTYYPDSVKGRFTISRDNANNTLYLQMSSLKAEDTAMYFCARPNWERTFDYWGQGTTLTVSS VL: not shown",binding result,[1],no binding (tested: 10 µg/ml)
same,binding result,[2],no binding (tested: 10 µg/ml)
same,Kd,[3],11.5 nM
same,EC50,[4],0.44 µg/mL
same,EC50,[5],1.07 µg/mL
